Experimental data: US6277617A, “Chemically modified enzymes” (Genencor International, Inc., priority 1997, dated 2001)
Where a chain is given by its changes, count along the chain named. In names and notes the source's numbering stands.

B1: Bacillus lentus subtilisin, wild type (SBL-WT) (Lederbergia lenta) (protein)
chain: AQSVPWGISRVQAPAAHNRGLTGSGVKVAVLDTGISTHPDLNIRGGASFVPGEPSTQDGNGHGTHVAGTIAALNNSIGVLGVAPSAELYAVKVLGASGSGSVSSIAQGLEWAGNNGMHVANLSLGSPSPSATLEQAVNSATSRGVLVVAASGNSGAGSISYPARYANAMAVGATDQNNNRASFSQYGAGLDIVAPGVNVQSTYPGSTYASLNGTSMATPHVAGAAALVKQKNPSWSNVQIRNHLKNTATSLGSTNLYGSGLVNAEAATR
notes: made in house; host or cells: B. subtilis
B2: Bacillus lentus subtilisin (SBL) variant N62C (Lederbergia lenta; N60C) (protein)
chain: B1 chain with N60C
notes: as for B1

Substrate: C[C@H](NC(=O)CCC(=O)O)C(=O)N[C@@H](C)C(=O)N1CCC[C@H]1C(=O)N[C@@H](Cc1ccccc1)C(=O)Nc1ccc([N+](=O)[O-])cc1
Test: Hydrolysis of succinyl-L-Ala-L-Ala-L-Pro-L-Phe-p-nitroanilide, kinetic parameters
Assay type: biochemical, Bacillus lentus
Settings: pH 7.5, 0.1 M sodium phosphate, 0.5 M NaCl, 1% DMSO, 25° C.
Description: Activity, including the kinetic parameters kcat, KM, and kcat /KM were measured for hydrolysis of the synthetic peptide substrate succinyl-L-Ala-L-Ala-L-Pro-L-Phe-p-nitroanilide using the method described in Bonneau, P. et al. (1991) J. Am. Chem. Soc., 113(3):1030. Briefly, a small aliquot of subtilisin variant stock solution was added to a 1 cm cuvette containing substrate dissolved in 0.1 M sodium phosphate buffer, pH 7.5, containing 0.5 M NaCl and 1% DMSO, and thermostated at 25° C. or similarly at pH 8.6, 0.1 M tris buffer containing 0.05% Tween™80 and 1% DMSO. The reaction progress was followed spectrophotometrically by monitoring the absorbance of the reaction product p-nitroaniline at 410 nm using a Perkin Elmer λ2 spectrophotometer (Δε410 8800 M^-1 cm^-1).
The modified enzymes were prepared as described above after site-directed mutagenesis to replace the amino acid of interest with a cysteine. The kinetic parameters were determined at pH 7.5 as described above. The precursor protease was a Bacillus lentus subtilisin (SBL-WT).
To examine the effects of chemical modification on the pH profile of SBL, seven modified N62C mutants were made as described above. 0.02M ethylene diamine buffers of ionic strength 0.05M (adjusted with KCl) were employed with 1.25×10^-4 M succinyl-AAPF-pNA substrate and Kcat /KM measurements were performed as described above. Kcat /KM reflects the pKa of His64, part of the catalytic triad for SBL, in the free enzyme and is unaffected by nonproductive binding modes. Fersht, A. E. (1985) Enzyme Structure and Mechanism 2 ed., Freeman (New York). pKa was calculated using Graphit (McGeary & Associates, Middletown Conn.). The shift in pKa reflects a shift in the pH profile of SBL. Representative pH profiles for SBL N62C-Scylcohexyl (N62C-Scy) and SBL-WT are shown in FIG. 3 ([E]=1×10^-7 to 5×10^-8 M at 25° C.). Points were done in duplicate.

Row | Protein | Km (other: SBL-WT) | kcat (other: SBL-WT) | kcat/Km (other: SBL-WT) | Km (other: N62C) | kcat (other: N62C) | kcat/Km (other: N62C)
1 | B1 | 550 µM | 48 s⁻¹ | 87000 M⁻¹ s⁻¹ | – | – | –
2 | B2 | – | – | – | 1490 µM | 61 s⁻¹ | 41000 M⁻¹ s⁻¹
